Data taken from the supplement of paper PMC9112550, “Optimization of the antimicrobial peptide Bac7 by deep mutational scanning” (BMC Biology, 2022).

System: Escherichia coli TOP10
Assay: shrunken log2 fold change of peptide-encoding DNA abundance (4.5 h post-induction vs induction); higher = less antimicrobial activity (less host growth inhibition)
Details: time post-induction: 4.5 h; library: site-saturation at positions 5, 18, 19, 20
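Also: peptides expressed intracellularly from a pBAD plasmid library in pooled LB shake-flask culture, induced with 0.3% L-arabinose, DNA abundance read by NGS, three biological replicates, DESeq2 with apeglm shrinkage.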

Row | Sequence | shrunken log2 fold change
1 | RRIRVRPPRLPRPRPRPPQMPRP | 0.236
2 | RRIRVRPPRLPRPRPRPPSKPRP | 1.13
3 | RRIRVRPPRLPRPRPRPPTMPRP | 0.0704
4 | RRIRVRPPRLPRPRPRPPTWPRP | 0.0832
5 | RRIRVRPPRLPRPRPRPPVGPRP | 0.375
6 | RRIRVRPPRLPRPRPRPPWAPRP | 0.537
7 | RRIRVRPPRLPRPRPRPPWDPRP | 0.445
8 | RRIRVRPPRLPRPRPRPPWGPRP | 0.0932
9 | RRIRVRPPRLPRPRPRPQCCPRP | -0.185
10 | RRIRVRPPRLPRPRPRPQCVPRP | -0.218
11 | RRIRVRPPRLPRPRPRPQDMPRP | -0.736
12 | RRIRVRPPRLPRPRPRPQEMPRP | 0.0818
13 | RRIRVRPPRLPRPRPRPQGQPRP | 0.00581
14 | RRIRVRPPRLPRPRPRPQGVPRP | -0.275
15 | RRIRVRPPRLPRPRPRPQINPRP | -0.0064
16 | RRIRVRPPRLPRPRPRPQISPRP | -0.0989
17 | RRIRVRPPRLPRPRPRPQLYPRP | -0.137
18 | RRIRVRPPRLPRPRPRPQMAPRP | -0.302
19 | RRIRVRPPRLPRPRPRPQPSPRP | 0.00981
20 | RRIRVRPPRLPRPRPRPQQEPRP | 0.0458
21 | RRIRVRPPRLPRPRPRPQQWPRP | 0.0185
22 | RRIRVRPPRLPRPRPRPQRTPRP | -0.0863
23 | RRIRVRPPRLPRPRPRPQSSPRP | -0.0172
24 | RRIRVRPPRLPRPRPRPQTNPRP | -0.0562
25 | RRIRVRPPRLPRPRPRPQTPPRP | 0.546

Row | Sequence | shrunken log2 fold change
26 | RRIRVRPPRLPRPRPRPQVEPRP | -0.272
27 | RRIRVRPPRLPRPRPRPQVNPRP | -0.795
28 | RRIRVRPPRLPRPRPRPQVPPRP | -0.205
29 | RRIRVRPPRLPRPRPRPQWLPRP | 0.188
30 | RRIRVRPPRLPRPRPRPQWSPRP | -0.201
31 | RRIRVRPPRLPRPRPRPQYYPRP | -0.238
32 | RRIRVRPPRLPRPRPRPRCFPRP | 0.05
33 | RRIRVRPPRLPRPRPRPRCLPRP | -0.16
34 | RRIRVRPPRLPRPRPRPRCTPRP | 0.0149
35 | RRIRVRPPRLPRPRPRPREEPRP | 0.493
36 | RRIRVRPPRLPRPRPRPRELPRP | -0.0137
37 | RRIRVRPPRLPRPRPRPRFNPRP | -0.264
38 | RRIRVRPPRLPRPRPRPRFQPRP | 0.129
39 | RRIRVRPPRLPRPRPRPRGLPRP | 0.307
40 | RRIRVRPPRLPRPRPRPRHDPRP | 0.129
41 | RRIRVRPPRLPRPRPRPRHHPRP | -0.0962
42 | RRIRVRPPRLPRPRPRPRHPPRP | 0.278
43 | RRIRVRPPRLPRPRPRPRLWPRP | 0.45
44 | RRIRVRPPRLPRPRPRPRNLPRP | 0.107
45 | RRIRVRPPRLPRPRPRPRNPPRP | 0.148
46 | RRIRVRPPRLPRPRPRPRNWPRP | 0.4
47 | RRIRVRPPRLPRPRPRPRPFPRP | 0.351
48 | RRIRVRPPRLPRPRPRPRPKPRP | 0.521
49 | RRIRVRPPRLPRPRPRPRQCPRP | 0.33
50 | RRIRVRPPRLPRPRPRPRQEPRP | -0.0401

Row | Sequence | shrunken log2 fold change
51 | RRIRVRPPRLPRPRPRPRQHPRP | 0.174
52 | RRIRVRPPRLPRPRPRPRSHPRP | 0.0021
53 | RRIRVRPPRLPRPRPRPRWCPRP | 0.295
54 | RRIRVRPPRLPRPRPRPRYEPRP | -0.273
55 | RRIRVRPPRLPRPRPRPRYIPRP | -0.458
56 | RRIRVRPPRLPRPRPRPSESPRP | 0.0556
57 | RRIRVRPPRLPRPRPRPSFCPRP | 0.212
58 | RRIRVRPPRLPRPRPRPSHTPRP | -0.0229
59 | RRIRVRPPRLPRPRPRPSINPRP | -0.243
60 | RRIRVRPPRLPRPRPRPSIWPRP | -0.205
61 | RRIRVRPPRLPRPRPRPSMFPRP | -0.245
62 | RRIRVRPPRLPRPRPRPSQKPRP | -0.0127
63 | RRIRVRPPRLPRPRPRPSRSPRP | 0.0405
64 | RRIRVRPPRLPRPRPRPSTGPRP | -0.00698
65 | RRIRVRPPRLPRPRPRPSVEPRP | -0.0446
66 | RRIRVRPPRLPRPRPRPSVGPRP | -0.659
67 | RRIRVRPPRLPRPRPRPSVIPRP | -0.239
68 | RRIRVRPPRLPRPRPRPSVSPRP | -0.488
69 | RRIRVRPPRLPRPRPRPSWSPRP | 0.0478
70 | RRIRVRPPRLPRPRPRPSWTPRP | -0.0613
71 | RRIRVRPPRLPRPRPRPSYFPRP | -0.131
72 | RRIRVRPPRLPRPRPRPTAFPRP | 0.0786
73 | RRIRVRPPRLPRPRPRPTDLPRP | -0.101
74 | RRIRVRPPRLPRPRPRPTDVPRP | 0.0418
75 | RRIRVRPPRLPRPRPRPTFQPRP | -0.0952

Row | Sequence | shrunken log2 fold change
76 | RRIRVRPPRLPRPRPRPTFTPRP | -0.073
77 | RRIRVRPPRLPRPRPRPTFVPRP | 0.0147
78 | RRIRVRPPRLPRPRPRPTKHPRP | -0.135
79 | RRIRVRPPRLPRPRPRPTKTPRP | 0.0337
80 | RRIRVRPPRLPRPRPRPTLRPRP | 0.102
81 | RRIRVRPPRLPRPRPRPTLSPRP | -0.0525
82 | RRIRVRPPRLPRPRPRPTMQPRP | 0.158
83 | RRIRVRPPRLPRPRPRPTNCPRP | -0.075
84 | RRIRVRPPRLPRPRPRPTQWPRP | 0.12
85 | RRIRVRPPRLPRPRPRPTSNPRP | -0.296
86 | RRIRVRPPRLPRPRPRPTVQPRP | -0.0375
87 | RRIRVRPPRLPRPRPRPTWAPRP | 0.194
88 | RRIRVRPPRLPRPRPRPTWPPRP | 0.446
89 | RRIRVRPPRLPRPRPRPTWTPRP | 0.221
90 | RRIRVRPPRLPRPRPRPTYTPRP | -0.172
91 | RRIRVRPPRLPRPRPRPVAGPRP | 0.0748
92 | RRIRVRPPRLPRPRPRPVATPRP | 0.212
93 | RRIRVRPPRLPRPRPRPVAWPRP | 0.421
94 | RRIRVRPPRLPRPRPRPVDDPRP | 0.177
95 | RRIRVRPPRLPRPRPRPVDIPRP | 0.0216
96 | RRIRVRPPRLPRPRPRPVDMPRP | 0.00782
97 | RRIRVRPPRLPRPRPRPVEKPRP | 0.265
98 | RRIRVRPPRLPRPRPRPVGLPRP | 0.216
99 | RRIRVRPPRLPRPRPRPVHFPRP | 0.13
100 | RRIRVRPPRLPRPRPRPVHMPRP | -0.0089

Row | Sequence | shrunken log2 fold change
101 | RRIRVRPPRLPRPRPRPVHQPRP | 0.241
102 | RRIRVRPPRLPRPRPRPVIHPRP | -0.968
103 | RRIRVRPPRLPRPRPRPVLAPRP | 0.239
104 | RRIRVRPPRLPRPRPRPVMKPRP | -0.127
105 | RRIRVRPPRLPRPRPRPVNAPRP | -0.0836
106 | RRIRVRPPRLPRPRPRPVNVPRP | -0.411
107 | RRIRVRPPRLPRPRPRPVPNPRP | -0.175
108 | RRIRVRPPRLPRPRPRPVQEPRP | -0.0375
109 | RRIRVRPPRLPRPRPRPVQRPRP | 0.167
110 | RRIRVRPPRLPRPRPRPVQTPRP | 0.0297
111 | RRIRVRPPRLPRPRPRPVQVPRP | -0.269
112 | RRIRVRPPRLPRPRPRPVVCPRP | 0.251
113 | RRIRVRPPRLPRPRPRPVVPPRP | 0.132
114 | RRIRVRPPRLPRPRPRPVVSPRP | 0.0132
115 | RRIRVRPPRLPRPRPRPVWGPRP | 1.8
116 | RRIRVRPPRLPRPRPRPVYAPRP | -0.00846
117 | RRIRVRPPRLPRPRPRPWATPRP | -0.122
118 | RRIRVRPPRLPRPRPRPWAVPRP | 0.157
119 | RRIRVRPPRLPRPRPRPWCCPRP | -0.203
120 | RRIRVRPPRLPRPRPRPWCRPRP | -0.396
121 | RRIRVRPPRLPRPRPRPWDDPRP | -0.27
122 | RRIRVRPPRLPRPRPRPWEMPRP | -0.00133
123 | RRIRVRPPRLPRPRPRPWETPRP | 0.0394
124 | RRIRVRPPRLPRPRPRPWFCPRP | -0.299
125 | RRIRVRPPRLPRPRPRPWFMPRP | -0.537

Row | Sequence | shrunken log2 fold change
126 | RRIRVRPPRLPRPRPRPWFTPRP | 0.0469
127 | RRIRVRPPRLPRPRPRPWGAPRP | 0.21
128 | RRIRVRPPRLPRPRPRPWHKPRP | -0.127
129 | RRIRVRPPRLPRPRPRPWHNPRP | -0.49
130 | RRIRVRPPRLPRPRPRPWKAPRP | 0.0634
131 | RRIRVRPPRLPRPRPRPWKQPRP | -0.0479
132 | RRIRVRPPRLPRPRPRPWLEPRP | 0.147
133 | RRIRVRPPRLPRPRPRPWLRPRP | -0.171
134 | RRIRVRPPRLPRPRPRPWLYPRP | -0.157
135 | RRIRVRPPRLPRPRPRPWMMPRP | -0.0912
136 | RRIRVRPPRLPRPRPRPWMPPRP | -0.199
137 | RRIRVRPPRLPRPRPRPWNSPRP | -0.106
138 | RRIRVRPPRLPRPRPRPWNWPRP | -0.00795
139 | RRIRVRPPRLPRPRPRPWQFPRP | -0.0175
140 | RRIRVRPPRLPRPRPRPWRSPRP | -0.0506
141 | RRIRVRPPRLPRPRPRPWSDPRP | -0.138
142 | RRIRVRPPRLPRPRPRPWSFPRP | -0.225
143 | RRIRVRPPRLPRPRPRPWSKPRP | -0.2
144 | RRIRVRPPRLPRPRPRPWTNPRP | -0.584
145 | RRIRVRPPRLPRPRPRPWVEPRP | -0.0944
146 | RRIRVRPPRLPRPRPRPYADPRP | -0.543
147 | RRIRVRPPRLPRPRPRPYCDPRP | -0.348
148 | RRIRVRPPRLPRPRPRPYCGPRP | -0.502
149 | RRIRVRPPRLPRPRPRPYCWPRP | -0.0314
150 | RRIRVRPPRLPRPRPRPYDIPRP | -0.279
